From a protein production outcome set (Wang et al. 2014) come the findings set out here.
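Note: failed if final PepcDB status was selected cloned or expressed and not failed if soluble or beyond.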

This data set can be described thus: label from the status in PepcDB records.
For “MEKDDSNDGSIIGGNGITAGKDVFLHNIKAPVNIGNTNNTNQNYTTYIISENIEEHTKSLIDFAQFCENKREYEKALDYYEQARVKLEKSESKILLVKVMMGEAVCHHKKGNLSRAKNLIFEAERLDPKNPTVLANIASQLKSENPDEAEIYAKKALEFDKNNFLAKCVIGLLEYDKGNIKDSLRTLKQASTINPNVGYPFNCMARIYSSEKDYGNAIKYGKKAVKIESDNAIFLMELAIDYMNIAFPENEVCISSDFSKMLKMEYLEKALKCLEKAKEMSESQGNNYLNCEIYTYLSRVHLAKGEFNKSIEYCEMIINSGLDTIDIYIILGEAYGECQNYDKVIEYYELLLKRENLTENHLFIVKANLATSYFYKNRLNEAEKLFKELIDENPENINLCIQMSNVLEENGKIEKAFSLLEKIDKFSQKPWDFYYMMGRLYHKKDDYESSVKYLKEAISKNSEAIPPRIYLINLYLECGMHKYAVKQAIELIQLAPTGINFYKLASLYYEIGDYKESAVFSRKALEADYGKVETYRLLCSSLLEANKLSEAKDEFENAFTKYPDDLELKLNYSATLSALEYTEKAIEILTQIISNDPNVVFAYKALARIYYKEASYEIALEYSKKAVFIEPEDEDAHFVMGCSLLNLGKNDEAVEEIQKVIEINPNFDSAWLIDAEKGMEYLGNLITISNHIIERYENGNITISKVGELLIKDTFDLLCHINNVKVAESLSLSDEKIDQLRNSPISKRDVLVDETMLGILAKTGSLDLLRLAFDHVYVIKELEDKIVIGPYLKDHPYRDVKNKLQIIDGGWIESLNPNDMIALATKKIVVENKFSKNDISFIALALDKDFLCLTEDLLLRIQLESINKPTCGIFGFVNYAVSKNIIKQDDAEKIFTKVKSVCIVE”, the protein production entry is listed as “failed”.

As for “MAMRDLVNGGAACAVPGSSSSSNPLGALTNALLGSSSKTQERLKEIPNANRSGPRPQFYSEDQQIRSLPGSELDQPLLQPGAQGSEFFRGFRSVDQNGLGAAWDEVQQGGPMPPMGPMFEPVQPTFEGPPQRVLSNFLHSFVESSRGGIPFRPAPVPVLGLSQSDKQCIRDRSSIMARHFFADRGEEFINSQVNALLSSLDIDDGIQARGHVPGRFRELDDYWNESQAVVKPNLHPADNWAAEFNQHGMDHGGPDSWVQSFEQQHGVNGWATEFEQGQSQLMSSQMRSMDMQNIAAMEQTRKLAHTLSQDGNPKFQNSRFLQFVSKMSRGELIIDENQVKQASAPGEWATEYEQQYLGPPSWADQFANEKLSHGPEQWADEFASGRGQQETAEDQWVNEFSKLNVDDWIDEFAEGPVGDSSADAWANAYDEFLNEKNAGKQTSGVYVFSDMNPYVGHPEPMKEGQELFRKGLLSEAALALEAEVMKNPENAEGWRLLGVTHAENDDDQQAIAAMMRAQEADPTNLEVLLALGVSHTNELEQATALKYLYGWLRNHPKYGAIAPPELADSLYHADIARLFNEASQLNPEDADVHIVLGVLYNLSREFDRAITSFQTALQLKPNDYSLWNKLGATQANSVQSADAISAYQQALDLKPNYVRAWANMGISYANQGMYKESIPYYVRALAMNPKADNAWQYLRLSLSCASRQDMIEACESRNLDLLQKEFPL”, the protein production result was “failed”.

Turning to “MGNDNVTIKLEHRVKTSADLSDYVYKYERAYTDALNNGDDIKEASESTKKELNQLIDRTDLTYSDGMYDKETGIAAIAVKDKNTGETYIAYAGTNKDADGATDFISDANIGANNSAYLKRLGDKATSFYDRVQSNGDNITVTTGHSYGDFLASRVAIELIPFFINFRKVNDSFHFCY”, the protein production entry was “failed”.

As to “MKVIGINGSSRKDGNTAILIQTVFEELTKEGIETELIQLSGKNIEGCKACWACHKNRNKQCVITDDFFNECFAKMLVSDGIILGSPVYSAGVTSQMKALIDRASMVLAGNRGLFKHKVGASVVAARRGGAISAFGTLNNFLHSKEMFLVGSSYWNMAYGNAIGEVEQDQEGIDNMKNLGQNMAWILKKIHNS”, the protein production result was “failed”.

Turning to “MIEDTLHAIAQQDYPAESYEVLLINDGSKDNTLEIAENLAKIYPCIKIVNVPKGMGGKGKSRTLNNGLPHAKGELIVVYDADSTPEPDCVRLLAQTLLADKKLVAVNGKVRTRNWQDSILTRFIAIEFIFFQWIFQGGRWQRFELSTLMGTNYVIWRDALETLGGFDEKSLVDDTEMSFRIFIGQKRIKWVPYAIGWQQDPPSLSVFVKQRSRWTQGNFYVTRKYLPVALRTPFPIGIEILNNIMCYILFVPALFWSHITLTLGLLDIAGISVPGPFTLLWGLSFCLYVAQMWFTLSLEKVKPELYFYSVLSYVSYSQIFLFIVFKAAFDMLKNKIQGNSLQWYKTERSKEKK”, the protein production entry is on record as “failed”.

Regarding “MEGLAAFIIITLMIIIVPGPDFFVVMKNSITSGKGNGAMAALGITSGHVVYSLLAVFGIIFILANMYYVFVTIKILGAIYLIYLGIRSIISARQSMNFSTSQLKAQRITYLSSYRQGFFSTILNPKALLYYISILPQFLSTGEAVTSQIAILTAIVTTVILLWFIFCVYIFQYIKLLFTNRKIKAIFDYTVGAILIGLSLNLLLSKSS”, the protein production entry is “failed”.

Turning to “MTDYFHLHFNKGEFNAENLFIELKGNFAVYGSRWYFGESIETLKGTARTLDKADGAISLEDGIISRNGIALLDDSQGFIWDEQSGYIERENQIDLYFFAYGHDYRGAIRDFYHLTGSTPLLPRYALGNWWSRYWPYTSDEYLDLIDRFETEKIPLSIGVLDMDWHITDIPARFGSGWTGYSWNRNLIPNPEQLLQQLHDRKLKLSLNVHPADGIRAYEEAYPQIAKRLGLNVELEEPAIFDFFNPSFREAYFKDVHYELEKQGVDFWWIDWQQGTQGMLDPLWLLNHYHYQDSCKNAEGGLILSRYAGPGSHRYPVGFSGDTIISWNSLRFQPYFTATASNIGYSWWSHDIGGHMLGDYDEELQTRWLQFGVFSPITRLHSSRSPFNSKEPWFFSETTSKIMKKYLRLRHQMIPYLYTMNVQTHEEGAPLISPIYYFYPENDESYNVPNQYFFGTELMVAPIVEKMDLTFQSAKVDVWFPEGEWYDFFSEKKYTGGVKLSVYRDISTTPVFAKSGAIIPLVGSEIGMGVDLPEVVDWYVFPGKQHSFEMLEDQNGQRYKTRLSIDWEMGMVELALQGDSSIVPSNRKHRIHFKGTNVSIIELPNKNDTAKFEWKDNKRTSLNDEVFRLLKTASLPYELKDRLLNQFINAKNSHDLMNILHHQDKELRGRLLEMIFTSQNLEHHHHHH”, the protein production entry is reported as “failed”.

Take “MGGFRFHQYQVVGRALPTENDEHPKIYRMKLWGRNEVCAKSKFWYFMRKLKKVKKSNGQMLAINEIFEKNPTTIKNYGIWLRYQSRTGYHNMYKEYRDTTLNGGVEQMYTEMASRHRVRFPCIQIIKTATVPAKLCKREITKQFHNSKIKFPLVFRKVRPPSRKLKTTYKASKPNLFM”: the protein production result is reported as “failed”.

Take “MSEENKIGTYQFVAEPFHVDFNGRLTMGVLGNHLLNCAGFHASDRGFGIATLNEDNYTWVLSRLAIELDEMPYQYEKFSVQTWVENVYRLFTDRNFAVIDKDGKKIGYARSVWAMINLNTRKPADLLALHGGSIVDYICDEPCPIEKPSRIKVTSNQPVATLTAKYSDIDINGHVNSIRYIEHILDLFPIELYQTKRIRRFEMAYVAESYFGDELSFFCDEVSENEFHVEVKKNGSEVVCRSKVIFE”: the protein production entry is on record as “not failed”.

With “MMSNGGDSSEIVRELEELKLKKAEIEHRISTLEAKLQDTAAVELYDAVSNGDSYLTAPELEHGLSPDQIYRYSRQLLLPSFAVEACGVGQLGIIDHDVVELNNMHRQIIHTEAFIGHPKVKSAAAACRSINSTIKVDEYVEALRTSNALEILSQYDIIVDATDNPPSRYMISDCCVLLGKPLVSGAALGMEGQLTVYNHNGGPCYRCLFPTPPPTSACQRCSDSGVLGVVPGVIGCLQALETIKLASLVGEPLSERMLLFDALSARMRIVKIRGRSSQCTVCGDNSSFNKQTFKDFDYEDFTQFPLFAGPLNLLPAESRISSKEFKEILQKKEQHVLLDVRPSHHYKIVSLPDSLNIPLANLETRLNELTSALKEKGNGHANTESCTNPSVFVVCRRGNDSQRAVQYLRESGFDSAKDIIGGLEAWAANVNPNFPTY”, the protein production result was “failed”.

For “LRRGHLKLQRDGQIIGHTPEEWEQIFREVWPEYEIEPNPLPGYAPFDIGMWLTVEAPAYAVWIDPEDGSEYWAG”, the protein production entry was “failed”.

For “MEGITSFENLPEELKREILLRMSPNSLVTCSRVSKKLASMIRTKSFKELYLSRSMRCPRVLFAANGTITPHVLFTSFQEKEKPLLSSGEQRIITSLQGEFLFSPPVRGLICLVERESARIVICNPGTTKFLALPIVEADETTRIITHLGYDEQKDVFKVLCTRTKPETPHLVLTVGSGKEPWREIVCKFPHTVIGAGVFYRGTLYYLAAFHSKSIIMTFDVRSETFMPITSPDGVDLNQGSWRLVNYSQQGGFALVNESRGFIYQSNGGDAYLETWVWNVDTRKWSMNSILIRKWKDYAQDNEDYDYRFRGTQGTYELVFAPIRVKEDGSLTVILYNTDTQAFRRSKVQMMGEGHEFRFVDTFLDHVDSTLLI”, the protein production result was “failed”.

Consider “MTLNITSKQMDITPAIREHLEERLAKLGKWQTQLISPHFVLNKVPNGFSVEASIGTPLGNLLASATSDDMYKAINEVEEKLERQLNKLQHKSESRRADERLKDSFEN”, for which the protein production entry is recorded as “not failed”.

Regarding “MNILTLMETFSAVVEAGSFTGAAEKLGLSKSFVSKQVSTLEVELGCRLLYRTTRTLSLSDEGSQFYNHCKIIMAEAENARAEVMDRQGAPRGKIRMTIPQSLIISGFGQLLIDFQLQYPEIKLEVIASGRIEDLVKEGIDIALRVGQLEDSSLISRRLMDCTFQVVASSDYIKKWGEPFQPADLMQHNCLIYGDSKINKGWPFRSPSGESITVKAKGNFISNDGGLVVEGMLNGLGIGFGPSFLFNEHVEKGRLKLLLSDYYQPPTAISALYPLNRNLSRRIRLLIDYLSERLSV”, the protein production result is listed as “not failed”.

On to “MSAQVPRELLQLREQVRRQPGDFVAWLMLADAELGMGVTAAGETAVQRALALHPGHPEAVARLGRVRWAQQRHAEAATLLQQASDLVPQHPGIALWLGHALEDAGQPEQAAAAYTRAHKLLPDEPYITAQLLNWRRRLCDWRELDSLAAQVRTAVTQGEAAVEPFAFLSEDASAAEQLACARTRAQAIASSVHPLPAATLRSRGTLQLGFVSNGFSAHPTGLLTVALFEALRRRQPDLQVQLFATSPDDGSDIRARLAQATRMHDVTALGHLATAQHIRNQGIDLLFDLRGWGGGGRPEVFALRPAPVQLNWLAYPGTSGAPWMDYVLGDAIALPTWLEPFYSEQVLRLPRAFQPSDTSRTVAEAPSRAQCGLPDHAVVLCCFNNSYKLNPRSMARMLAVLRAVPGSVLWLLSGPGEADARLRAAAQAQGVHAQRLVFMPKLPHPQYLARYRHADLFLDTHPYNAHTTASDALWAGCPVLTTPGQTFAARVAGSLNHRLGLDEMNVADDATFVAKAIELASDAEALRGVRAQLAEQRLRSGLFDMDGFADDLAALLRGIAQRRGWLGV”, for which the protein production entry is “failed”.

As to “MSLSTGATIVIDLGKTLSKVSLWDLDGRMLDRQVRPSIPLEIDGIRRLDAPDTGRWLLDVLSRYADHPVTTIVPVGHGAGIAALTDGRLAFPPLDYEQSIPEAVMADYRSQRDPFARTGSPALPDGLNIGSQLWWLDQLHPDVMANATLLPWAQYWAWFLTGRAVSEVTSLGCHSDLWDPQDGDFSPMAKRLGWAARFAPIVRAGDTVGALLPAIAERTGLSPDVQVLAGLHDSNAALLAARGFAEIADNEATVLSTGTWFIAMRLPATPVDTATLPEARDCLVNVDVHGRPVPSARFMGGREIETLIEIDTRRVDIKPDQPALLAAVPEVLRHGRMILPTLMRGFGPYPHGRFAWINRPEDWFERRAAACLYAALVADTALDLIGSTGRILVEGRFAEADVFVRALASLRPDCAVYTANAHNDVSFGALRLIDPGLRPQGELVRIEPLDTGSWADLDTYRNRWQAEVEAAKVEEGHHHHHH”, the protein production result was “not failed”.
